Reference: article PMC3794620, “The Pyridoxal 5′-Phosphate (PLP)-Dependent Enzyme Serine Palmitoyltransferase (SPT): Effects of the Small Subunits and Insights from Bacterial Mimics of Human hLCB2a HSAN1 Mutations” (BioMed Research International, 2013)

Experiments:
Sp SPT [1] = target: T1, Sp SPT (Sphingomonas paucimobilis, UniProt Q93UV0, V246M); test: UV-visible titration, absorbance change at […] nm (external aldimine); assay type: binding; settings: read-out: Kd ^L-ser
T1 construct: full-length soluble enzyme, pET28a, C-terminal His6 tag, E. coli BL21(DE3), Ni-NTA and gel filtration, homodimer ~90 kDa, PLP holoform
T1 sequence (Q93UV0 1-420 V246M): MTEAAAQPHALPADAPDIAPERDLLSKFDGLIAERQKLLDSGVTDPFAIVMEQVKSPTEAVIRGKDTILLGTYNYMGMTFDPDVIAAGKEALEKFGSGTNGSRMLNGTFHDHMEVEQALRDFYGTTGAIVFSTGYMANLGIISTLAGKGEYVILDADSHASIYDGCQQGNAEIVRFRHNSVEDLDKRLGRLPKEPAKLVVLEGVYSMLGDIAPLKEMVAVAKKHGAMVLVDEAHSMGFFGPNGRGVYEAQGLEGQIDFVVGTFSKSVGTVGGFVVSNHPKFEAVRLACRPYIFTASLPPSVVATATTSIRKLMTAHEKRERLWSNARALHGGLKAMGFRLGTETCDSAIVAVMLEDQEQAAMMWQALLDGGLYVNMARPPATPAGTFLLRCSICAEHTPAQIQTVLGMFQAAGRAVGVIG

Sp SPT [2] = target: T2, Sp SPT (Sphingomonas paucimobilis, UniProt Q93UV0); test: as above; assay type: binding; settings: read-out: Kd ^L-ser
T2 construct: full-length soluble enzyme, pET28a, C-terminal His6 tag, E. coli BL21(DE3), Ni-NTA and gel filtration, homodimer ~90 kDa, PLP holoform
T2 sequence (Q93UV0 1-420): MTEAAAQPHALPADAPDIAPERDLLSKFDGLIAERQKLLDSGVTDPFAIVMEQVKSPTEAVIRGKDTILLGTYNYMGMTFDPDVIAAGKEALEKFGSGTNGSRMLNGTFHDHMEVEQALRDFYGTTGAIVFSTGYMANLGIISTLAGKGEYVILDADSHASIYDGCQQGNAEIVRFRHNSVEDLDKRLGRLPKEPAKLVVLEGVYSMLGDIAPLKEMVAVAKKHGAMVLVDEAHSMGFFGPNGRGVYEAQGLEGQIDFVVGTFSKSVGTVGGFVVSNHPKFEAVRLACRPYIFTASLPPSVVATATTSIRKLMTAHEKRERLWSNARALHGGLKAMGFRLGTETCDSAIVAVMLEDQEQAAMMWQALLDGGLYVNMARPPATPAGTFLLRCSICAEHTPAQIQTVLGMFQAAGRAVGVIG

Sp SPT [3] = target: T3, Sp SPT (Sphingomonas paucimobilis, UniProt Q93UV0, G385F); test: as above; assay type: binding; settings: read-out: Kd ^L-ser
T3 construct: full-length soluble enzyme, pET28a, C-terminal His6 tag, E. coli BL21(DE3), Ni-NTA and gel filtration, homodimer ~90 kDa, PLP holoform
T3 sequence (Q93UV0 1-420 G385F): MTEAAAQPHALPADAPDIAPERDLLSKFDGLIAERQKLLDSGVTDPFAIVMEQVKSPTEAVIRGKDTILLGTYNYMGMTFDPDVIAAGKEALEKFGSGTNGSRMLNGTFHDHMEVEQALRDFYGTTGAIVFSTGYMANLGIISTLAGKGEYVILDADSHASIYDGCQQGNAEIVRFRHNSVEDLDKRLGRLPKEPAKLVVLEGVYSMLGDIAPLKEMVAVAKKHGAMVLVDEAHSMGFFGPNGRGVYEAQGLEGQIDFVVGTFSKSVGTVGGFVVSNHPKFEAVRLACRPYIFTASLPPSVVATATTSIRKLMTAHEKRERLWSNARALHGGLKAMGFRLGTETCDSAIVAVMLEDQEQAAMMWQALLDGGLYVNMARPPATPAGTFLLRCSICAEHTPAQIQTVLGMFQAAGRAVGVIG

Sp SPT [4] = target: T2, Sp SPT; test: UV-visible spectroscopy, quinonoid peak at ~[…] nm; assay type: binding; settings: 1.5 mM analogue, 50 mM L-serine, 40 μM enzyme, 25 °C, 15 min
Sp SPT [5] = target: T2, Sp SPT; test: UV-visible spectroscopy of internal aldimine; assay type: binding; settings: covalent (imine to Lys265), 40 μM enzyme, 20 mM potassium phosphate pH 7.5, 150 mM NaCl, 25 °C
[6] = test system: T4, CCCCCCCCCCCCCCCC(=O)SCCNC(=O)CCNC(=O)[C@H](O)C(C)(C)COP(=O)(O)OP(=O)(O)OC[C@H]1O[C@@H](n2cnc3c(N)ncnc32)[C@H](O)[C@@H]1OP(=O)(O)O; test: DTNB assay of CoASH release, Michaelis-Menten fit; assay type: biochemical, Sphingomonas paucimobilis; settings: co-substrate L-serine
T4 construct: full-length soluble enzyme, pET28a, C-terminal His6 tag, E. coli BL21(DE3), Ni-NTA and gel filtration, homodimer ~90 kDa, PLP holoform
Excerpt: (§1) DTNB assay of CoASH release, Michaelis-Menten fit on Sp SPT

N[C@@H](CO)C(=O)O = test system: T5, N[C@@H](CO)C(=O)O; test: DTNB assay of CoASH release, Michaelis-Menten fit; assay type: biochemical, Sphingomonas paucimobilis; settings: co-substrate palmitoyl-CoA
T5 construct: full-length soluble enzyme, pET28a, C-terminal His6 tag, E. coli BL21(DE3), Ni-NTA and gel filtration, homodimer ~90 kDa, PLP holoform
Excerpt: as §1

[7] = substrate: CCCCCCCCCCCCCCCC(=O)SCCNC(=O)CCNC(=O)[C@H](O)C(C)(C)COP(=O)(O)OP(=O)(O)OC[C@H]1O[C@@H](n2cnc3c(N)ncnc32)[C@H](O)[C@@H]1OP(=O)(O)O; test: DTNB assay of CoASH release, Michaelis-Menten fit; assay type: biochemical, Sphingomonas paucimobilis; settings: co-substrate L-serine
Excerpt: as §1

[8] = substrate: N[C@@H](CO)C(=O)O; test: DTNB assay of CoASH release, Michaelis-Menten fit; assay type: biochemical, Sphingomonas paucimobilis; settings: co-substrate palmitoyl-CoA
Excerpt: as §1

[9] = target: the molecule itself; test: SEC; size exclusion chromatography of the purified enzymes; data not shown

N[C@@H](CO)C(=O)O [L-serine]
Kd (Sp SPT [1]): 1500 ± 100 µM | Kd (Sp SPT [2]): 1100 ± 100 µM | Kd (Sp SPT [3]): 4700 ± 100 µM

CCCCCCCCCCCCCCCC(=O)CSCCNC(=O)CCNC(=O)[C@H](O)C(C)(C)COP(=O)(O)OP(=O)(O)OC[C@H]1O[C@@H](n2cnc3c(N)ncnc32)[C@H](O)[C@@H]1OP(=O)(O)O [S-(2-oxoheptadecyl)-CoA]
UV-visible spectroscopy, quinonoid peak at ~495 nm (Sp SPT [4]): Addition of the analogue to the PLP-L-serine external aldimine form of the wild-type SPT

Cc1ncc(COP(=O)(O)O)c(C=O)c1O [pyridoxal 5′-phosphate]
UV-visible spectroscopy of internal aldimine (Sp SPT [5]): characteristic of the holo-, PLP-bound internal aldimine form of the enzyme

Sp SPT (Sphingomonas paucimobilis; G385F)
Km [6]: 52.2 ± 8.0 µM | kcat [6]: 41 ± 2.0 × 10^-2 s^-1 | kcat/Km [6]: 7850 M⁻¹ s⁻¹ | Km (N[C@@H](CO)C(=O)O): 3000 ± 500 µM | kcat (N[C@@H](CO)C(=O)O): 41 ± 2.0 × 10^-2 s^-1 | kcat/Km (N[C@@H](CO)C(=O)O): 136 M⁻¹ s⁻¹

Sp SPT (Sphingomonas paucimobilis; V246M)
Km [6]: 128.0 ± 10.0 µM | kcat [6]: 44 ± 1.2 × 10^-2 s^-1 | kcat/Km [6]: 3440 M⁻¹ s⁻¹ | Km (N[C@@H](CO)C(=O)O): 2500 ± 200 µM | kcat (N[C@@H](CO)C(=O)O): 44 ± 1.2 × 10^-2 s^-1 | kcat/Km (N[C@@H](CO)C(=O)O): 176 M⁻¹ s⁻¹

B1: Sp SPT (Sphingomonas paucimobilis) (protein)
chain: MTEAAAQPHALPADAPDIAPERDLLSKFDGLIAERQKLLDSGVTDPFAIVMEQVKSPTEAVIRGKDTILLGTYNYMGMTFDPDVIAAGKEALEKFGSGTNGSRMLNGTFHDHMEVEQALRDFYGTTGAIVFSTGYMANLGIISTLAGKGEYVILDADSHASIYDGCQQGNAEIVRFRHNSVEDLDKRLGRLPKEPAKLVVLEGVYSMLGDIAPLKEMVAVAKKHGAMVLVDEAHSMGFFGPNGRGVYEAQGLEGQIDFVVGTFSKSVGTVGGFVVSNHPKFEAVRLACRPYIFTASLPPSVVATATTSIRKLMTAHEKRERLWSNARALHGGLKAMGFRLGTETCDSAIVAVMLEDQEQAAMMWQALLDGGLYVNMARPPATPAGTFLLRCSICAEHTPAQIQTVLGMFQAAGRAVGVIG
notes: full-length soluble enzyme, pET28a, C-terminal His6 tag, E. coli BL21(DE3), Ni-NTA and gel filtration, homodimer ~90 kDa, PLP holoform
Km [7]: 35.6 ± 2.0 µM | kcat [7]: 114 ± 2.0 × 10^-2 s^-1 | kcat/Km [7]: 32000 M⁻¹ s⁻¹ | Km [8]: 1600 ± 90 µM | kcat [8]: 114 ± 2.0 × 10^-2 s^-1 | kcat/Km [8]: 712 M⁻¹ s⁻¹

B2: Sphingomonas paucimobilis serine palmitoyltransferase V246M (mimic of hLCB2a V359M) (enzyme)
chain: MTEAAAQPHALPADAPDIAPERDLLSKFDGLIAERQKLLDSGVTDPFAIVMEQVKSPTEAVIRGKDTILLGTYNYMGMTFDPDVIAAGKEALEKFGSGTNGSRMLNGTFHDHMEVEQALRDFYGTTGAIVFSTGYMANLGIISTLAGKGEYVILDADSHASIYDGCQQGNAEIVRFRHNSVEDLDKRLGRLPKEPAKLVVLEGVYSMLGDIAPLKEMVAVAKKHGAMVLVDEAHSMGFFGPNGRGMYEAQGLEGQIDFVVGTFSKSVGTVGGFVVSNHPKFEAVRLACRPYIFTASLPPSVVATATTSIRKLMTAHEKRERLWSNARALHGGLKAMGFRLGTETCDSAIVAVMLEDQEQAAMMWQALLDGGLYVNMARPPATPAGTFLLRCSICAEHTPAQIQTVLGMFQAAGRAVGVIG
modifications: PLP cofactor covalently bound as an imine to Lys265
notes: serine palmitoyltransferase of Sphingomonas paucimobilis with V246M, made on pET 28a/Sp SPT; The PDB entries are of the wild-type parent; also called Sp SPT V246M; SPT V246M
stoichiometry N [9]: 2

B3: Sphingomonas paucimobilis serine palmitoyltransferase G385F (mimic of hLCB2a I504F) (enzyme)
chain: MTEAAAQPHALPADAPDIAPERDLLSKFDGLIAERQKLLDSGVTDPFAIVMEQVKSPTEAVIRGKDTILLGTYNYMGMTFDPDVIAAGKEALEKFGSGTNGSRMLNGTFHDHMEVEQALRDFYGTTGAIVFSTGYMANLGIISTLAGKGEYVILDADSHASIYDGCQQGNAEIVRFRHNSVEDLDKRLGRLPKEPAKLVVLEGVYSMLGDIAPLKEMVAVAKKHGAMVLVDEAHSMGFFGPNGRGVYEAQGLEGQIDFVVGTFSKSVGTVGGFVVSNHPKFEAVRLACRPYIFTASLPPSVVATATTSIRKLMTAHEKRERLWSNARALHGGLKAMGFRLGTETCDSAIVAVMLEDQEQAAMMWQALLDGGLYVNMARPPATPAFTFLLRCSICAEHTPAQIQTVLGMFQAAGRAVGVIG
modifications: PLP cofactor covalently bound as an imine to Lys265
notes: serine palmitoyltransferase of Sphingomonas paucimobilis with G385F, made on pET 28a/Sp SPT; The PDB entries are of the wild-type parent; also called Sp SPT G385F; SPT G385F
stoichiometry N [9]: 2
